Laboratory results reported in WO2005035751A1 (dated 2005).

biological target: T1, angiotensin II-biotin (UniProt P01019 25-32, biotin attached (angiotensin II-biotin; chemical structure only in Figure 3)); test: SPR (Biacore 3000), angiotensin II-biotin on streptavidin chip
T1 construct: Captured through its biotin on streptavidin (Biacore chip, ELISA plate) or on NeutrAvidin resin (selection); P01019 is the human angiotensinogen precursor, and angiotensin II is only a fragment of it; also called アンジォテンシン II-ピオチン

Binder | binding result
MI3-41 (scFv, Single-chain antibody translated in wheat germ extract) scFv: MASMTGGQQMGQVTLKESGPGILQPSQTLSLTCSFSGFSLSTSGMGVGWIRQPSGKGLEWLAHIWRDDVKRYNPALKSRLTISKDTSSSQVFLKIASMDTADTATYYCARIYYYGPYFDVWGAGTTVTVSLAKTSRPSGGGGSGRGGSGGAGSGGGGSIEGRDIQLTQPPSFLSASLGDRVSLTCRVSQDIGSSLNWLQQDPDGTIKRLIYAISSIDSGVPKRFSGNRSESDYSLTISSLESEDFVDYYCLQYASTPPTFGGGTKLEIKRDYKDDDDKRTSRVRLHHHHHHHKK | binds
MI3-15 (scFv, Single-chain antibody translated in wheat germ extract) scFv: MASMTGGQQMGQVTLKESGPGILQPSQTLSLTCSFSGFSLSTSGMGVGWIRQPSGKGLEWLAHIWRDDVKRYNPALKSRLTISKDTSSSQVFLKIASMDTADTATYYCARIYYYGPYFDVWGAGTTVTVSLAKTSRPSGGGGSGRGGSGGAGSGGGGSIEGRDIQLTQPPSFLSASLGDRVSLTCRVSQDIGSSLNWLQQDPDGTIKRLIYAISSIDSGVPKRFSGNRSESDYFLTISSLESEDFVDYYCLQYASTPPTFGGGTKLEIKRDYKDDDDKRTSRVRLHHHHHHHKK | binds
MI3-34 (scFv, V domains shown, Single-chain antibody translated in wheat germ extract) VH: QVTLKESGPGILQPSQTLSLTCSFSGFSLSTSGMGVGWIRQPSGKGLEWLAHIWQDNVKRYNPALKSRLSISKDTSSSQVFLKIASMDTADTATYYCARIYYYGPYFDVWGAWTTVTVSL | binds
MI3-26 (scFv, Single-chain antibody translated in wheat germ extract) scFv: MASMTGGQQMGQVTLKECGPGILQPSQTLSLTCSFSGFSLSTSGMSVGWIRQPSGKGLKWLAHIWWNDDKYYNPAPKSRLTISKDTSNNQVFLKIASVVTADTATYYCARIARISYYFDYWGQGTTLTVSSAKTSRPSGGGGSGGGGTGGVGSRGGSSIEGRDIQLTQPPSFLSASLGDRVSLTCRVSQDIGSSLNWLQQDPDGTIKRLIYAISSIDSGVPKRFSGNRSESDYSLTISSLESEDFVDYYCLQYASTPPTFGGGTKLEIKRDYKDDDDKRTSRVRLHHHHHHHKK | binds

Second part, the binder after the results:

binding result | Binder
binds | MI3-42 (scFv, Single-chain antibody translated in wheat germ extract) scFv: MASMTGGQQKGQVTLKESGPGILQPSQTLSLTCSFSGFSLSTSGMGVGWIRQPSGKGLEWLAHIWRDDVKRYNPALKSRLTISKDTSSSQVFLKIASMDTADTATYYCARIYYYGPYFDVWGAGTTVTVSLAKTSRPSGGGGSGGGGSGGAGSGGGGSIEGRDIQLTQPPSFLSASLGDRVSLTCRVSQDIGSSLNWLQQDPDGTVKRLIYAISSIDSGVPKRFSGNRSESDYSLTISSLESEDFVDYYCLQYASTPPTFGGGTKLEIKRDYKDDDDKRTSRVRLHHHHHHHKK
binds | MI3-28 (scFv, Single-chain antibody translated in wheat germ extract) scFv: MASMTGGQQMGQVTLKESGPGILQPSQTLSLTCSFSGFSLSTSGMGVGWIRQPSGKGLEWLAHIWRDDVKRYNPALKSRLTISKDTSSSQVFLKIASMDTADTATYYCPRIYYYGPYFDVWGAGTTVTVSLAKTSRPSGGGGSGGGGSGGAGSGGGGSIEGRDIQLTQPPSFLSASLGDRVSLTCRVSQDIGSSLNWLQQDPDGTIKRLIYAISSIDSGVPKRFSGNRSESDYSLTISSLESEDFVDYYCLQYASTPPTFGGGTKLEIKRDYKDDDDKRTSRVRLHHHHHHHKK
binds | MI3-5 (scFv, Single-chain antibody translated in wheat germ extract) scFv: MASMTGGQQMGQVTLKETGPGILQPSQTLSLTCSFSGFSLSTSGMGVGWIRQPSGKGLEWLAHIWRDDVKRYNPALKSRLTISKDTSSSQVFLKIASMDTADTATYYCTRIYYYGPYFDVWGAGTTVTVSLAKTSRPSGGGGSGGGGSGGAGSGGGGSIEGRDIQLTQPPSFFSASLGDRASLTRRVSQDIGSSLNWLQQDPDGTIKRLIYAISSIDSGVPKRFSGNRSESDYSLTISSLESEDFVDYYCLQYASTPSTFGGGTKLEIKRDYKDDDDKRTSRVRLHHHHHHHKK
